Results on 39 molecules are retold here after paper PMC10681739, “High-throughput data and modeling reveal insights into the mechanisms of cooperative DNA-binding by transcription factor proteins”.

The data set has as its target T1, ETS1 x2 (Homo sapiens, UniProt P14921).
T1 sequence: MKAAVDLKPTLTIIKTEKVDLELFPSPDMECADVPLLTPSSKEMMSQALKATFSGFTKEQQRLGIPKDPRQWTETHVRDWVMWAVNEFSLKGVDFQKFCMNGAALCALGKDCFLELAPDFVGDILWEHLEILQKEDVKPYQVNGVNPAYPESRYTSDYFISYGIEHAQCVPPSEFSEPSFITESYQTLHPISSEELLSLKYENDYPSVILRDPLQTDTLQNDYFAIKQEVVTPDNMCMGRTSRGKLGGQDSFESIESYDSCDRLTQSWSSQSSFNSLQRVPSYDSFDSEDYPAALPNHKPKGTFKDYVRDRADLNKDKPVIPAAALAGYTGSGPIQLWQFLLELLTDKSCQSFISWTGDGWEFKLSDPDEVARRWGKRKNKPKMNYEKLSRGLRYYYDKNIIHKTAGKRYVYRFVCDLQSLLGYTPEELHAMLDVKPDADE
The data set can be described thus: gcPBM; 10 nM ETS1. Conditions: tags: N-terminal GST (pDEST15), kept (PMC6008103); chain copies: 2; label: surface-attached array probe.

B1: Table S4 A row 2542 (dsDNA)
DNA 1: GGGAAACTCCACAGGAAACGGAAATGGTCTCTCCCA
DNA 2: TGGGAGAGACCATTTCCGTTTCCTGTGGAGTTTCCC
Consider B1, for which the binding signal was 4020 PBM fluorescence, median of replicate spots.

B2: Table S4 A row 1324 (dsDNA)
DNA 1: TTGAATGGACCTCATCCTGCTTCCTGCTCTTTGCAG
DNA 2: CTGCAAAGAGCAGGAAGCAGGATGAGGTCCATTCAA
As to B2, the binding signal was 3130 PBM fluorescence, median of replicate spots.

B3: Table S4 A row 1195 (dsDNA)
DNA 1: GGCGTCGCCGCCGGATTCGACTTCCTGACGTCAGGC
DNA 2: GCCTGACGTCAGGAAGTCGAATCCGGCGGCGACGCC
With B3, the binding signal is 1940 PBM fluorescence, median of replicate spots.

B4: Table S4 A row 2151 (dsDNA)
DNA 1: AGGGCTCAGAGGCGGAAGCGGAAGCACATTCTGTCA
DNA 2: TGACAGAATGTGCTTCCGCTTCCGCCTCTGAGCCCT
With B4, the binding signal is 3300 PBM fluorescence, median of replicate spots.

B5: Table S4 A row 136 (dsDNA)
DNA 1: TCTTTTGATTGGGCTTCCTTCCTGTGTTTTCTCAGA
DNA 2: TCTGAGAAAACACAGGAAGGAAGCCCAATCAAAAGA
For B5, the binding signal is 2710 PBM fluorescence, median of replicate spots.

B6: Table S4 A row 1545 (dsDNA)
DNA 1: CTTCGAAGAGATTTCCTCCCGGAAAGGCCGAGCATT
DNA 2: AATGCTCGGCCTTTCCGGGAGGAAATCTCTTCGAAG
For B6, the binding signal is 1350 PBM fluorescence, median of replicate spots.

B7: Table S4 A row 1500 (dsDNA)
DNA 1: CTCGTCGCCAGGGGAAGTGCTTCCTGCTGACAGGTC
DNA 2: GACCTGTCAGCAGGAAGCACTTCCCCTGGCGACGAG
Take B7: the binding signal is 4140 PBM fluorescence, median of replicate spots.

B8: Table S4 A row 1360 (dsDNA)
DNA 1: CAGAACGCACAGGAAGAGAGAGGAAACCAAGTGGGT
DNA 2: ACCCACTTGGTTTCCTCTCTCTTCCTGTGCGTTCTG
As for B8, the binding signal is 1100 PBM fluorescence, median of replicate spots.

B9: Table S4 A row 2210 (dsDNA)
DNA 1: AAAACACCCGGATGGAGTCGCACTTCCCGAGTCTCG
DNA 2: CGAGACTCGGGAAGTGCGACTCCATCCGGGTGTTTT
For the molecule B9, the binding signal is 1250 PBM fluorescence, median of replicate spots.

B10: Table S4 A row 2690 (dsDNA)
DNA 1: CGGGCCTCCGCCTTCCGCCCGGAACCCACCCCCGGG
DNA 2: CCCGGGGGTGGGTTCCGGGCGGAAGGCGGAGGCCCG
B10: the binding signal is 1830 PBM fluorescence, median of replicate spots.

B11: Table S4 A row 1655 (dsDNA)
DNA 1: CCGCGGGGTCCGGAACTGCTTGTTCCGGCAGTGGAA
DNA 2: TTCCACTGCCGGAACAAGCAGTTCCGGACCCCGCGG
As to B11, the binding signal is 1230 PBM fluorescence, median of replicate spots.

B12: Table S4 A row 356 (dsDNA)
DNA 1: TTGGGCCATTGTTTTCCTGCTTCCTCCCTTCAAGCC
DNA 2: GGCTTGAAGGGAGGAAGCAGGAAAACAATGGCCCAA
Regarding B12, the binding signal was 1590 PBM fluorescence, median of replicate spots.

B13: Table S4 A row 1584 (dsDNA)
DNA 1: TGTGTCGGACAGGAACTCGGCTTCCTTTGTGCCTCT
DNA 2: AGAGGCACAAAGGAAGCCGAGTTCCTGTCCGACACA
Take B13: the binding signal was 1040 PBM fluorescence, median of replicate spots.

B14: Table S4 A row 2434 (dsDNA)
DNA 1: AGCAACAACGTCACTTCCCTTCCGGACCACAAGGGG
DNA 2: CCCCTTGTGGTCCGGAAGGGAAGTGACGTTGTTGCT
Turning to B14, the binding signal was 3480 PBM fluorescence, median of replicate spots.

B15: Table S4 A row 1205 (dsDNA)
DNA 1: CTTAAACTGGAGGAAGTAAGTTTCCGTTAAAATGTG
DNA 2: CACATTTTAACGGAAACTTACTTCCTCCAGTTTAAG
In the case of B15, the binding signal was 1760 PBM fluorescence, median of replicate spots.

B16: Table S4 A row 502 (dsDNA)
DNA 1: CAGAGCAGCAGGAAACCATTATTTCCTCCTAGGTCT
DNA 2: AGACCTAGGAGGAAATAATGGTTTCCTGCTGCTCTG
As for B16, the binding signal was 2360 PBM fluorescence, median of replicate spots.

B17: Table S4 A row 110 (dsDNA)
DNA 1: TTGAGGGCTGGGCGGAAACGGAAAAGGCTAAGGGCC
DNA 2: GGCCCTTAGCCTTTTCCGTTTCCGCCCAGCCCTCAA
In the case of B17, the binding signal was 2150 PBM fluorescence, median of replicate spots.

B18: Table S4 A row 2126 (dsDNA)
DNA 1: ACGCGAAAGCCCGGATAGACTTCCGCGCAGGGGCGG
DNA 2: CCGCCCCTGCGCGGAAGTCTATCCGGGCTTTCGCGT
Regarding B18, the binding signal was 2080 PBM fluorescence, median of replicate spots.

B19: Table S4 A row 180 (dsDNA)
DNA 1: AGCAATACCAGGAAATGTGTTGCTTCCTAAAGTGAT
DNA 2: ATCACTTTAGGAAGCAACACATTTCCTGGTATTGCT
With B19, the binding signal was 1370 PBM fluorescence, median of replicate spots.

B20: Table S4 A row 1821 (dsDNA)
DNA 1: TAATCTGCAACTTCCCTGTTCTTCCTGTTAGATGTG
DNA 2: CACATCTAACAGGAAGAACAGGGAAGTTGCAGATTA
For B20, the binding signal was 2270 PBM fluorescence, median of replicate spots.

B21: Table S4 A row 2241 (dsDNA)
DNA 1: GCGGCCTCCAAACATCCTCCGGAAGCTGCCACCTAC
DNA 2: GTAGGTGGCAGCTTCCGGAGGATGTTTGGAGGCCGC
For the molecule B21, the binding signal was 2030 PBM fluorescence, median of replicate spots.

B22: Table S4 A row 1239 (dsDNA)
DNA 1: GGGAGGCCCTGCAGGAAGCAGGATGTTGACCCGGAG
DNA 2: CTCCGGGTCAACATCCTGCTTCCTGCAGGGCCTCCC
Take B22: the binding signal is 2610 PBM fluorescence, median of replicate spots.

B23: Table S4 A row 1712 (dsDNA)
DNA 1: CACGAGTCCAGGAAACAAGTGCTTCCTGCCTATGGG
DNA 2: CCCATAGGCAGGAAGCACTTGTTTCCTGGACTCGTG
Take B23: the binding signal is 3840 PBM fluorescence, median of replicate spots.

B24: Table S4 A row 2212 (dsDNA)
DNA 1: CTGGGCCAGGCGGAAGCTCTGCTTCCGCATGCTGGG
DNA 2: CCCAGCATGCGGAAGCAGAGCTTCCGCCTGGCCCAG
As to B24, the binding signal is 4240 PBM fluorescence, median of replicate spots.

B25: Table S4 A row 677 (dsDNA)
DNA 1: ACAGCCCCGCCCGCTTCCTTCCTGCCTTCTCCACGT
DNA 2: ACGTGGAGAAGGCAGGAAGGAAGCGGGCGGGGCTGT
As for B25, the binding signal is 3660 PBM fluorescence, median of replicate spots.

B26: Table S4 A row 2304 (dsDNA)
DNA 1: GCGGCCTGACGGGAAACGTAGTTTCCGGGGCCAAGA
DNA 2: TCTTGGCCCCGGAAACTACGTTTCCCGTCAGGCCGC
On to B26, for which the binding signal is 4630 PBM fluorescence, median of replicate spots.

B27: Table S4 A row 1809 (dsDNA)
DNA 1: AGGGCAGGATGCCAAGATGAACTACATTTCCTGGCA
DNA 2: TGCCAGGAAATGTAGTTCATCTTGGCATCCTGCCCT
Consider B27, for which the binding signal was 1160 PBM fluorescence, median of replicate spots.

B28: Table S4 A row 548 (dsDNA)
DNA 1: GCGCACCGAAACGGAAGAACTTCCTTGATTAGCATA
DNA 2: TATGCTAATCAAGGAAGTTCTTCCGTTTCGGTGCGC
B28: the binding signal was 2740 PBM fluorescence, median of replicate spots.

B29: Table S4 A row 2556 (dsDNA)
DNA 1: CGCGCCGGACCGGAAAGCCGGGGAAGTGGCCGAGGA
DNA 2: TCCTCGGCCACTTCCCCGGCTTTCCGGTCCGGCGCG
As to B29, the binding signal is 3050 PBM fluorescence, median of replicate spots.

B30: Table S4 A row 2174 (dsDNA)
DNA 1: CAGCACGGGCCGCTTCCTTATCCGGTAAAGTGCGGG
DNA 2: CCCGCACTTTACCGGATAAGGAAGCGGCCCGTGCTG
Consider B30, for which the binding signal is 2460 PBM fluorescence, median of replicate spots.

B31: Table S4 A row 2116 (dsDNA)
DNA 1: CCCAGCGGGCGAACTTCCTTTCCGCGCAACTCGCCC
DNA 2: GGGCGAGTTGCGCGGAAAGGAAGTTCGCCCGCTGGG
For the molecule B31, the binding signal was 2660 PBM fluorescence, median of replicate spots.

B32: Table S4 A row 2527 (dsDNA)
DNA 1: GCCTGAAGCCGGAAGACTATAGCTTCCCGGCATGCA
DNA 2: TGCATGCCGGGAAGCTATAGTCTTCCGGCTTCAGGC
For B32, the binding signal is 3700 PBM fluorescence, median of replicate spots.

B33: Table S4 A row 2604 (dsDNA)
DNA 1: AGGGGGCGGCGGCGGATGCCGGAAGAGTGCCCGCCC
DNA 2: GGGCGGGCACTCTTCCGGCATCCGCCGCCGCCCCCT
As for B33, the binding signal is 1530 PBM fluorescence, median of replicate spots.

B34: Table S4 A row 2446 (dsDNA)
DNA 1: TCCCACCGTCCCATCCGCTACTTCCCGAAAACTCAA
DNA 2: TTGAGTTTTCGGGAAGTAGCGGATGGGACGGTGGGA
For B34, the binding signal is 1300 PBM fluorescence, median of replicate spots.

B35: Table S4 A row 700 (dsDNA)
DNA 1: TGGGTGACACTCCTTCCGCCTTCCGTGACCCCCATC
DNA 2: GATGGGGGTCACGGAAGGCGGAAGGAGTGTCACCCA
In the case of B35, the binding signal was 2820 PBM fluorescence, median of replicate spots.

B36: Table S4 A row 1213 (dsDNA)
DNA 1: ACAATATCCCAGGAAACAGACATCCGCGTGCTCGCG
DNA 2: CGCGAGCACGCGGATGTCTGTTTCCTGGGATATTGT
Take B36: the binding signal is 1480 PBM fluorescence, median of replicate spots.

B37: Table S4 A row 834 (dsDNA)
DNA 1: AAGGCAGGAGGATGTGCTCGCGGTTTCCTGTGATGT
DNA 2: ACATCACAGGAAACCGCGAGCACATCCTCCTGCCTT
Consider B37, for which the binding signal was 1650 PBM fluorescence, median of replicate spots.

B38: Table S4 A row 1015 (dsDNA)
DNA 1: AGAAGCCACCACAGGAAACGGAAGAAGCCACCTCTG
DNA 2: CAGAGGTGGCTTCTTCCGTTTCCTGTGGTGGCTTCT
For the molecule B38, the binding signal was 3380 PBM fluorescence, median of replicate spots.

B39: Table S4 A row 382 (dsDNA)
DNA 1: AGGAGGGAGGGAGCTTCCTTCCTGTTCTCTGAAGGC
DNA 2: GCCTTCAGAGAACAGGAAGGAAGCTCCCTCCCTCCT
As for B39, the binding signal was 3590 PBM fluorescence, median of replicate spots.
